# Results reported in US20240032514A1 (RENGENE BIOTECHNOLOGY, published 2024).
# Read-outs that look alike come from different tables or passages of the source.
# T1: human C-reactive protein (human, UniProt P02741 19-224)
# T1 construct: also called CRP; antigen CRP
# T1 sequence (looked up): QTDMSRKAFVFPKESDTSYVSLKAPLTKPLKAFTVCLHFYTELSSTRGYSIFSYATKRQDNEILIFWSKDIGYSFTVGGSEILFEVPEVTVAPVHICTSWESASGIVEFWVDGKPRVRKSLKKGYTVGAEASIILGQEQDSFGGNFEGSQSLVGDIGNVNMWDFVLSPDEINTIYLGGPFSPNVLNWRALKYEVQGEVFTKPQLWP
# T2: OVA (UniProt P01012 2-386)
# T2 construct: Control protein coated at 2 µg/mL; also called unrelated protein OVA
# T2 sequence (looked up): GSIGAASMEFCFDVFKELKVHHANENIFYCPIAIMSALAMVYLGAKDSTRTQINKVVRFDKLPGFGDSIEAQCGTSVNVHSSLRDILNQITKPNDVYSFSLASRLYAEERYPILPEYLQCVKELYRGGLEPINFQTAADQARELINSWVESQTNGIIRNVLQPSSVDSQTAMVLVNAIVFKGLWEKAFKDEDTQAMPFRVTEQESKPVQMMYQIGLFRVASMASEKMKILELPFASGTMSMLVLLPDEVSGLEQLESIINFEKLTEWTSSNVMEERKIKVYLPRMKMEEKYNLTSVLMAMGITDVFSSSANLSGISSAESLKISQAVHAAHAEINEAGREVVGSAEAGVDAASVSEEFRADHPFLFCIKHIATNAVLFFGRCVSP
# Experiments:
# human C-reactive protein [1] = molecular target: T1, human C-reactive protein; test: ELISA, CRP coated at 2 µg/mL
# human C-reactive protein [2] = molecular target: T1, human C-reactive protein
# human C-reactive protein [3] = molecular target: T1, human C-reactive protein; test: BLI (FORTEBIO-OCTET), antibody at 10 µg/mL, CRP at 200-3.13 nM
# OVA = molecular target: T2, OVA; test: ELISA, protein coated at 2 µg/mL, antibody in gradient dilution
# BSA = molecular target: T3, BSA (UniProt P02769 25-607); test: as above
# T3 construct: Control protein coated at 2 µg/mL; also called unrelated protein BSA
# T3 sequence (P02769 25-607 limits assumed): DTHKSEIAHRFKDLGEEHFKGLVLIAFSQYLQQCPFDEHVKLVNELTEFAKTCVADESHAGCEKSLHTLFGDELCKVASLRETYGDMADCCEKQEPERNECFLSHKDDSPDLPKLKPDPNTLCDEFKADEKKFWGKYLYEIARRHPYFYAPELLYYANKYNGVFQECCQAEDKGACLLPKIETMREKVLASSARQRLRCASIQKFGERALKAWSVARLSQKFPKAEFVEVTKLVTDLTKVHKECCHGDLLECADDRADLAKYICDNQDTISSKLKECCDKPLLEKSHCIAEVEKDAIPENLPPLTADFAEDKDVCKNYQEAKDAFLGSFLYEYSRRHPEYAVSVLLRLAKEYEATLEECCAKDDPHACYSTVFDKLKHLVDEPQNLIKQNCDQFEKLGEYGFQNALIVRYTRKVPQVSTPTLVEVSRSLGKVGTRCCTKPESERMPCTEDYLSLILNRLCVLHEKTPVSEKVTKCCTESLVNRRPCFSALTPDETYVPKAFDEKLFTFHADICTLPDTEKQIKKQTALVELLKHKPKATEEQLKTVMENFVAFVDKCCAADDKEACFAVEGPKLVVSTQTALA
binder,measurement,setting,value
D4-12 heavy chain antibody variable region (VHH) VHH: EVQLQQSGPELVKPGASVKISCKASGYMFSDYYMNWVKQSHGKSLEWIGNVDPNTDNTIYNQNFKDKATLTVDRSSRTAYMELHSLTSEDSAVYYCARSRFYDPWFAYWGQGTLVTVSA,binding result,human C-reactive protein [1],binds
G3-35 (VHH) VHH: EVQLQQSGPELVKPGASVRMSCKASGYTFTDYNIHWVKQSHGESLEWIGFVNPDNGDTYYYKNFKGKATLTFNRSSSTAYMDLRSLTSEDSAVYYCARGTTVEKDYWGQGTTLTVSS,binding result,human C-reactive protein [2],binds
G3-23 (VHH) VHH: EVQLQQSGPEVLKPGTSVRMSCKASGYTFTDYNIHWVKQSRGESLEWIGFVNPDTGDTYYYKNFKGKATLTFNRSSSTAYMDLRSLTSEDSAVYYCARGTTVEKDYWGQGTILTVSS,binding result,human C-reactive protein [2],binds
G3-71 (VHH) VHH: EVQLQQSGPELVKPGASVRMSCKASGYTFTDYNIHWVKQSHGESLEWIGFINPDNGDTYYYKNFRGKATLTLNKSSSTAYMDLRSLTSEDSGVYYCARGTTVEKDYWGQGTILTVSS,binding result,human C-reactive protein [2],binds
D5S-12 heavy chain antibody (VHH) VHH: EVKLLESGGGLVKPGGSLKLSCAASGFTFSDYGMSWIRQTPDKRLEWVATISSGNTYTYYSKSVKGRFTISRDNAKNTLYLQMSSLKSEDTAIYYCSRHTSDYYPLSQGTLVTVSA,Kd,human C-reactive protein [3],0.987 nM
same,koff,human C-reactive protein [3],8.44e-05 s⁻¹
same,kon,human C-reactive protein [3],85500 M⁻¹ s⁻¹
same,binding result,OVA,no binding
same,binding result,BSA,no binding
